The Kd is the free concentration of one partner at which half of the binding sites on the other are occupied at equilibrium, for simple one-to-one binding. A higher Kd goes with weaker binding. Usually koff stands for the first-order rate constant of dissociation. A lower koff goes with slow dissociation. One may read the kon as the rate constant with which the complex forms. The low end stands for slow association, the high end for fast association.

The source of these data is US20180282719A1 (published 2018).

Substitutions are numbered along the chain they refer to.

In assay [1] the target is T1, human IL-6 (Toray) (human, UniProt P05231 30-212).
T1 construct: also called human interleukin-6
Put plainly: SPR Biacore T100, antibody on protein A/G chip, human IL-6 analyte, pH 7.4, 37 C. As to the method: (§1) Kinetic analysis of antigen-antibody reactions at pH 5.5 and pH 7.4 was carried out using a Biacore T100™ surface plasmon resonance system (GE Healthcare) for the three types of antibodies prepared as mentioned above: Anti-IL6 wild type, Anti-IL6 clone 1, and Anti-IL-6 clone 2 (buffer: DPBS(−) (pH 7.4 or pH 5.5), 150 mM NaCl). The antibodies were bound to a sensor chip on which recomb-protein A/G (Pierce) was immobilized by amine coupling, and then human IL-6 (Toray) adjusted to an appropriate concentration was injected on the chip as an analyte. All the measurements were carried out at 37° C. Association rate constants kₐ (1/Ms) and dissociation rate constants kd (1/s) were calculated using Biacore T100™ Evaluation Software (GE Healthcare), and dissociation constants KD (M) were calculated based on those values (Table 14). Furthermore, the ratio of affinity at pH 5.5 and pH 7.4 was calculated for each clone to evaluate the pH-dependent binding.
On the technique in general: In SPR one partner is held on a chip, and binding of the other changes the refractive index at the surface.

Assay [2] deals with T1, human IL-6 (Toray). Put plainly: SPR Biacore T100, antibody on protein A/G chip, human IL-6 analyte, pH 5.5, 37 C. As to the method:
as §1

In assay [3] the target is T1, human IL-6 (Toray). Nature of the assay: SPR Biacore T100, antibody on protein A/G chip, human IL-6 analyte, 37 C, ratio of pH 5.5 to pH 7.4. As for the experimental part:
as §1

Assay [4] concerns the target T1, human IL-6 (Toray). Put plainly: SPR Biacore T100, antibody on protein A/G chip, human IL-6 analyte, 37 C. As for the experimental part: as §1
Assay [5] addresses T2, soluble mouse IL-31 receptor (mouse, UniProt Q8K5B1 19-499).
T2 sequence (looked up): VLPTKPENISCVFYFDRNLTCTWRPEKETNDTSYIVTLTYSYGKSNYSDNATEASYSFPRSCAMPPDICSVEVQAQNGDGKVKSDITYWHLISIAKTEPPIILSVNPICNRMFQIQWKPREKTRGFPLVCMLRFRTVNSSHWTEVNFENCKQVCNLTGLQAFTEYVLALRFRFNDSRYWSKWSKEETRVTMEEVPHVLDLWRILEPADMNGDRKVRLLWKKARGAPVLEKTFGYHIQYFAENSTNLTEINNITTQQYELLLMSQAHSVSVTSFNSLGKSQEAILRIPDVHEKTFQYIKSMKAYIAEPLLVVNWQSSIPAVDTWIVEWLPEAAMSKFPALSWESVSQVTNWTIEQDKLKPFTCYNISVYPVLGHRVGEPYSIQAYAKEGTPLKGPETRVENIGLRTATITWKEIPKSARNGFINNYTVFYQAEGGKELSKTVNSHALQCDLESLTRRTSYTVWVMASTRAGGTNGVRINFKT
Nature of the assay: SPR Biacore T100, antibody on protein A/G chip, soluble mouse IL-31 receptor analyte, pH 7.4, 25 C. As to the method:
(§2) Kinetic analysis of antigen-antibody reactions at pH 5.5 and pH 7.4 was carried out using a Biacore T100™ surface plasmon resonance system (GE Healthcare) for the two types of antibodies prepared as mentioned above: Anti-IL31R wild type and Anti-IL31R clone 1 (buffer: DPBS(−) (pH 7.4 or pH 5.5), 150 mM NaCl, 0.01% TWEEN® 20 (polyoxyethelene sorbitan monolaurate), 0.02% NaN₃). The antibodies were bound to a sensor chip on which recomb-protein A/G (Pierce) was immobilized by amine coupling, and then the soluble mouse IL-31 receptor (prepared according to the method described in WO 2007/142325) adjusted to an appropriate concentration was injected therein as an analyte. All the measurements were carried out at 25° C. Association rate constants kₐ (1/Ms) and dissociation rate constants kd (1/s) were calculated using Biacore T100™ Evaluation Software (GE Healthcare), and dissociation constants KD (M) were calculated based on those values (Table 16). Furthermore, the ratio of affinity at pH 5.5 and pH 7.4 was calculated for each clone to evaluate the pH-dependent binding.

The target of assay [6] is T2, soluble mouse IL-31 receptor. Nature of the assay: SPR Biacore T100, antibody on protein A/G chip, soluble mouse IL-31 receptor analyte, 25 C, ratio of pH 5.5 to pH 7.4. As to the method:
as §2

B1: Anti-IL6 wild type (antibody, human IgG1, kappa, V domains shown)
VH: EVQLVESGGKLLKPGGSLKLSCAASGFTFSSFAMSWFRQSPEKRLEWVAEISSGGSYTYYPDTVTGRFTISRDNAKNTLYLEMSSLRSEDTAMYYCARGLWGYYALDYWGQGTSVTVSS
VL: QIVLIQSPAIMSASPGEKVTMTCSASSSVSYMYWYQQKPGSSPRLLIYDTSNLASGVPVRFSGSGSGTSYSLTISRMEAEDAATYYCQQWSGYPYTFGGGTKLEIKR
notes: Antibody of WO 2004/039826, rebuilt and tested here; also called anti-IL-6 antibody including the H chain (WT) and L chain (WT)
With B1, in assay [1], the Kd turned out to be 0.0191 nM, the koff was determined as 0.000391 s⁻¹ and the kon amounted to 2.05e+07 M⁻¹ s⁻¹. In assay [2], the dissociation constant Kd amounted to 0.0161 nM, the koff was found to be 0.000245 s⁻¹ and the kon was 1.52e+07 M⁻¹ s⁻¹. Also, the “KD (pH 5.5)/KD (pH 7.4)” value in assay [3] amounted to 0.8.

B2: Anti-IL6 clone 1 (antibody, human IgG1, kappa, V domains shown)
VH: B1 VH with F32H, Y60H, D62H, Y103H
VL: B1 VL with L53H, Q89H, Y93H
notes: H chain (c1) / L chain (c1)
B2: the “pH-dependent binding ability relative to WT” value in assay [4] is > 10 fold. Further, in assay [1], the Kd worked out at 0.438 nM, the koff came out at 0.00471 s⁻¹ and the kon was determined as 1.07e+07 M⁻¹ s⁻¹. Besides, in assay [2], binding was characterised by a dissociation constant (Kd) of 4.52 nM, the koff was determined as 0.00926 s⁻¹ and the kon came to 2.05e+06 M⁻¹ s⁻¹. In addition, the “KD (pH 5.5)/KD (pH 7.4)” value in assay [3] is 10.3.

B3: Anti-IL-6 clone 2 (antibody, human IgG1, kappa, V domains shown)
VH: B1 VH with F32H, Y60H, D62H, Y103H
VL: B1 VL with N52H, L53H, Q89H, Y93H
notes: H chain (c1) / L chain (c2)
B3: in assay [4], the “pH-dependent binding ability relative to WT” value is > 10 fold. Moreover, in assay [1], the Kd was found to be 0.294 nM, the koff amounted to 0.00263 s⁻¹ and the kon is 8.96e+06 M⁻¹ s⁻¹. In assay [2], this molecule displayed a Kd of 3.98 nM, an off-rate (koff) of 0.011 s⁻¹ and a kon of 2.76e+06 M⁻¹ s⁻¹. The “KD (pH 5.5)/KD (pH 7.4)” value in assay [3] amounted to 13.5.

B4: Anti-IL31R wild type (antibody, human IgG1, lambda, V domains shown)
VH: not shown
VL: LPVLTQPPSVSVAPGQTARITCGGNNIGSKTVYWYQQEPGQAPVLVVYDDTDRPAGIPERFSGANSGNTATLTISRVEAGDEADYYCQVWDSSTDHGVFGGGTKLTVLG
notes: Antibody of WO 2007/142325, rebuilt and tested here; also called anti-IL-31 receptor antibody including the H chain (WT) and L chain (WT)
Consider B4, for which, in assay [5], binding was characterised by a dissociation constant (Kd) of 23 nM, the koff was determined as 0.0034 s⁻¹ and the kon was found to be 140000 M⁻¹ s⁻¹. In addition, the “KD (pH 5.5)/KD (pH 7.4)” value in assay [6] was 3.2.
